Experimental data from a protein production outcome set (Wang et al. 2014).

Assay: label from the status in PepcDB records

Sequence	protein production
MNKFLVSLFLPLVAFANSSEAAANANLFGAFTLIPPLVAIALAFITKDVILSLFTGVLSGTFLLSLSANIFKAQHLTFVNYYNTTVESFSKIISYILGSTSDPVNAGIILQILCIGGLVALITKMGGAKAVALKFAKRAKSAVSAQVNTWFLGLLIFFDDYANLLIVGPIMRPLADKFKISREKFAFIIDSTAAPVAGIAVISTWIGLEVSLIKTAYEHIGISNISAFGIFVETIPYRFYNIFMLFFVVMTAIMRREFGSMYKAEVRARTTGQIAPLPKSGTLDTTELEDQFLAPKEGIKIRAFDAIVPIFTLIILAILGFYFNGLSTLEGEELAKASANPLSFETFRAAFGNADSSVVLFQAALFAAIVAIFIGVRRKIFNLKEAVETWIYGWKTMIFTIVLLLFAWSLSSIVKDLGTSLFITSLLADKLPEFILPATIFAFASAISFAIGTSYGTMGILMPLAVPLAHEIAKINGMDANAMHHYMVINISCVLTGAIFGNHCSPISDNVILSSMSAKCDHMEHVRTQIPYALFICGISLIAGYIPVSLGLSVWFVLPLNFILIALLLRLIGKKVP	failed
MNKITSAFIRVLRQSSSSGGTGNLLGRQLSYKSDLSLDKIYPGARLQIYTPPPPPSGSDKFSGFIPMDRLEITYSRSSGPGGQHVNTVNTKVDVRFKVAQADWIPEQTRQKLLKVLANRITKDGYFYIKSDLTRSQQMNLADALEKLRTIIRSQEAVAPAPPSEETLEKLRRRQERAVRERLQLKRGRAQVKADRQGPSGLDL	failed
MNKKILLIGGGGHCKSVLDSLLDLDEYDDIGIIDTKENVGKAVLGTPILGYDRDLPSLYKDGYHYAFVAVGSIGNPSVRIRLFNTLCEMGFIIPNIVDASAKVSKHSQIDKGVFIGKHVVVNAGAVIGQGAIINSGAIVEHDCEIGEFVHIAPGTVLCGGVKIGRHSHIGTNSTVKQGIHIGSNCLIGMGSVVTKNIRDNVIAYGNPCREVKNLLEHHHHHH	failed
MNKKILTLLVLILSISSVLMLSKSITKKSKYKIIRDYFINSNYVLVKIENKDLKFTISKPIYDKKLNNYFFKGQTTSHFLISNNVDIAINTSPYEVKQNMFFPKGLYIYNKKMISKQINNYGEIVIKHNKIILNPKEDEIENCDYGFSGFFVLIKNGKYKKNFKETRHPRTIIGTDKNNKHLFLVTIEGRGVNNSKGASLNEAIDFALSYGMTNAINLDGGGSSTLVVKSNNAPYKLNFTANIFGQERPVPFHLGIKLPN	failed
MNKLLLVAAGGAVGSVARYLVGVGAMRVMGPGWPYGTFTVNVVGGFLMGCLASWLAHRGNTSSETWRVMLGVGVLGGFTTFSSFSLETALMIQKRAYGQAFTYSAASVLLAIAALFAGLLVARKVFA	failed
MNKSSATIMAAALMLASSCTEVKQEGQGYEPIIGKQEITIKDGRLTPEALWAMGRIGSLSISPDGKQIAYTVAYYSVPENKSHHVIYVMDADGKNNTLLTQTAWNESEPQWIKGGTKIAFLCNESGGSQIWEMNPDGTERRIISDFKGNIEGFSFSPDGKKILFISQIKYGQRTVDLYPDLPKASGIIVNDLMYKHWDEWVESIPHPFIADFDGNMMGAATDIMEGEPFEAPMKPFGGIEQLAWSNDSKQIAYTSRKKQGLAYAVSTDSDIYLYNIEKGTTLNLCKPNGKDSNGTDEMKGYDTNPKFSPNGKYIAWQSMERDGYESDRNRLCIYNLDDGQKTFVTESFESGVDDYCWNNDSQSLYFVGVWHGTSMVYSANLNGDIKKLTDGMYDYGSVAMAGDKIITKRHSISAADEIYTLTPADGQVAQLSHENDHIFKQLNLGKVEERWTKTTDGKQMLSWVIYPVNFDANKKYPTLLFCEGGPQSPVSQFWSYRWNFQIMAANDYIIIAPNRRGLPGFGMEWLEQISGDYGGQCMKDYLSAIDDISKEPYVDTNRLGCVGASFGGFSVYWLAGHHDKRFKAFIAHDGIFNMEQQYLETEEMWFANWDMGGAYWDKNNATAQRTFANSPHRFVDKWDTPILCIHGEKDYRILASQGMSAFNAAVLRGVPAELLLYPDENHWVLKPQNGVLWQRTFFSWLDKWLK	failed
MNLASIIGWGVGFGAILISMAFTPTGLGVFWDLSSVFITVVGSFSALMASSEVVAVKKIPTYLGFFFRRNSYAKVSIIKILVELSEKARKEGLLSLDDELEQINDPFFKSGMRLVVDGADPEVIRTMLYLELDQMQERHKVGSDLFKTWAKLAPAFGMTGTLIGLVALLGNLEDKSALGSSMAVALITTLYGTIMANLMFTPVQLKLEKIDTEEAAVKTMIIEGVLSIQSGDNPRILEQKLMTFLTPKDRSQLNSSIGGE	failed
MNLDAPRVLVLNAAYEVLGLASIKRAVLLVLGGGAEMVSESGLYLNTPSTRIPVPSVVRLKRMVRRRPGRVPLNRRNVLRRDRYTCQYCGQKGGELTVDHVLPKSRGGKSTWDNLVAACRSCNLRKGDRTPEEAGMRLLRPPKPPRVPLFLLDLKEVPPDWRPFVEGLLGLEHHHHHH	not failed
MNLDHLYPFGFRSTLFDRLTPEYEDLKGLSIHQLRESVARDLEDLLNSRVAKMDDVLVNYPLARQSILQFGIIDFVGLSTANPMDREKICQSIEQSIAAHEPRLKQVKVEMLLDGHNMGALCLSIQAYLNIHPLYEPVVFDALLKPTTQQYVISAQT	failed
MNLEPLRKRVRQYLDQQQYQSALFWADKVASLSHEEPQDVYWLAQCLYLTAQYHRAAHALRSRKLDKLYEACRYLAARCHYAAKEHQQALDILDMEEPINRRLFEKYLKDDNGSRDPSSDWEMSQSSIKSSICLLRGKIYDALDNRTLATYSYKEALKLDVYCFEAFDLLTSHHMLTAQEEKELLDSLPLNKLCAEEQELLRFVFENKLKKYNKPSETVIPESVDGLQENLDVVVSLAERHYYNCDFKMCYKLTSTVMEKDPFHANCLPVHIGTLVELNKANELFYLSHKLVDLYPSNPVSWFAVGCYYLMVGHKNEHARRYLSKATTLEKTYGPAWIAYGHSFAVESEHDQAMAAYFTAAQLMKGCHLPMLYIGLEYGLTNNSKLAERFFGQALSIAPEDPFVIHEVGVVAFQNGEWKTAEKWFLDALEKIKAIGNEVTVDKWEPLLNNLGHVCRKLKKYAEALDYHRQALVLIPQNASTYSAIGYIHSLMGNFENAVDYFHTALGLRRDDTFSVTMLGHCIEMYIGDSEAYIGADIKDKLKCYDFDVHTMKTLKNIISPPWDFRDFEVEKQNTEEAGLAPLQNSTKAPESRPNLEETFEIEMNESDMMLETSMSDHST	failed
MNLESKWLEDFSALAATRSFSQAAERRFVTQPAFSRRIRSLEAALGLVLVNRSRTPVELTAAGQLFLVTARTVVEQLGEVVRHLHHLEGGQGEVMQVAAAHSLALGFFPRWIAQLRNEGLNIATRLVATNVGDAVHALREGGCDLMLAFYDPDAALQMDAEIFPSLHLGHTEMLPVCAADAEGRPLFDMEGEASVPLLAYSTGAFLGRSVNLLLRQRNLRFTTVYETAMADSLKSMALEGLGIAWVPQLSVRAELARGELVVCGGPQWHVPLEIRLYRCALVRKANVRLLWRKLESAAPPESL	failed
MNLGQWGEIMSWLCLLPISGGIVYNLLTVFTTSLFLARSLPKQDFQPGVSVLKPVRGLEKNLEANLRTIAQQNYPAYEVIYCVQDPQDPALPIVKKLQAEFGPEKIIVAVHQIEQGANGKVNNLLGGLKHAKYDILVISDSDTNLRPDYLATMVSPLGDRLVGCVTTPFKLTQAQTWYEGLELLSINADFMPSVLFAEVTGASKACLGPSIAIRRSTLTEIGGLESLADYLVEDFELGQRVWTGGLKMVLLPYVIDAGVNLDNWTNWWSHQLYWDQNTYLARPLPFLATIIIRAVPFAFLFTFCHWSEPWAWLILFITLATRYGTAAIVAQELKDGETIRYLPLLLLRDCFGLVFWALSFSQRQVLWRGITYRLTKGGKMIPASPIPKS	failed
MNLKQISAIIIVKNAKQTLLECLNSLKDFDEIILLNNESSDNTLNIANEFKKDFANLHIYHSAFIGFGALKNLALSYAKNDWILSIDADEVLENECIKELKNLELQEDNIIALSRKNLYKGEWIKACGWWPDYVWRIFNKNFTRFNDNLVHESLVLPSNAKKIYLKNGLRHYAFRDISHLIDKMQYYSSLWAKQNIHKKSGVLKANLRAFWTFFRNYFLKNGFLYGYKGFIISVCNALGTFFKYMKLYELQKQKPKTCALIITTYNQKERLKLVLDSVKNLAFLPNEVLIADDGSKEDTARLIEEYQKDFPCPLKHIWQEDEGFRAAKSRNNAIKASKSEYIILIDGDMILEKDFVKNHLEFAKRKVILQGSRVILNKNESEEILKNNNYSLAFNKKGFKNQRSIFLAKCVYKFSKLTKKFFKKSQLVKGSKTCNMSFYKSDFEAIEGFNEKFIGWGREDSEFVARFLFNDGVFKRLKFNALAYHIYHEENSKNMLEINHQIYLETIKNEKTTWRLEHHHHHH	failed
MNLLPKTREEFAQTDYWNEFFKKRGEKAFEWYGEYLELCDQIHKYIKPADRILMLGCGNSKLSMDMYDTGFRDITNIDISPIAVKKMLELNAKSRPEMKFLQMDATAMTFPDESFSVSLDKGTLDALFADDEPETRAVVENYFKEILRTMRNGGRYVGISLLQEHILNFLLDFLPKHNCMLRIVHCLGVEQANKEKNADDALTLPVFVVVATKFKSLPMPVLEFGFGNDKMQRFTTVSELNSAVSSVQKAALVCNGLARSNIAGHNEVIMDLHRPSEQTPRYTIHILDKPPARGLGKYAAFIVPQGREVEWIFSTPAGRKKLQDSANFQRLAVVTLHRDQVYSTLDEVKQELADSIKNLSPAGLTDQIPYLSLGSDVGKRETLICGFSKISGDFRIEEVEANGKTLRRLIFLSNQFVVQSEALVKTVKIKGKKDRKKIDFGYLACQHHLYMSVGVQLATTVQHPKRDVEKDVLVVGLGGGGLCSFLHAALPQARITAVEIDPIMLEVAEQYFELKQDKRFHVVIDDGLDFVERCRNEDIHFDAVLFDVDSKDLSLGMSCPPQSFLATKILQHIKEIIGPKGLFMLNLVCRDESLRTEALNNLHKVFPAVCSYKLEEDINEIIYCANDEKYKTVEQWKKNMGTAGRGLNSAVKETKLASEDALEVAEFLSELKI	failed
MNLNAKKTTTAVQSASENPKLRVMPKQLFSRTPVLAGGNAAAKREEIREYFHSTLDRYEQLFETLRGDAAYFKKPISLRHPLIFYLGHTATFFTNKLLLAGLITDRINPKMESMFAVGVDEMSWDDLDTTHYDWPSVEEVRAYRRRMRETVDRLIRETPLTLPIEWDSPWWTIMMGIEHERIHLETSSVLIRQHALEHVAPHPAWEPCRKSGPAPDNQLVKVPEGTVQLGKKKDDPFYGWDNEYGTHIADVAAFEAGKYLVSNQEFLEFVQADGYETESYWEEEGRAWLKHAGAKHPTFWIRRGGEWELRLMTKEISMPWDWPVEVNYHEAKAFCNWKAAVSGQPYRLPTEDEWYRLYEVAGLSEVPAAAPAMANIHLDHGASSHPVNEFAQGDFYDVVGNVWQWTETPIYPFDGFDVHPHYDDFTTPTFDGRHNLIKGGSWISCGNESLKNSRYAFRRHFFQHAGFRYVVGTAPAIQHGSHYETDKLLSEYAEFHYGDTYFDVPNFPKALAELAIAAMGDKPAHKALDLGCASGRAAFELARHFDEVTGVDFSARFIGQGVQLASQGVLRYTLADEGDLVLYRERTLAGLGLDGVRHKVAFYQGDACNLKPIYTGYDLILAANLIDRLYDPAKLLTSIHTRINSGGILLIASPYTWLEEHTKREAWIGGFKRDGESFGTLDGLKEILGAHFRLIQGPTEVPFVIRETRRKFQHTLSEVTIWEKTA	failed
MNLPNKLTVLRIFMIPIFIIIVSVPMDWGTISFGDTTLAVTQLVGAIIFAVASFTDWLDGKIARAQGLVTNFGKFADPLADKMLVMTAFIVLVGQGKVPAWIVAIIVCRELAVTGLRLLLVEHGEVMAAAWPGKVKTATQMVAIILLFINNIPFSALHLPLDQIMLYACLIFTIYSGVDYFAKNKDVFKGSM	failed
MNLPSRQWSSEVRQLVFIGFSAITAVVLSYSYVATVGLSEMLFAIVGAGLLLALVVILPVILLD	failed
